The values below come from article PMC5642273.

Substrate in the data set: CC(C)=CCC/C(C)=C/COP(=O)(O)OP(=O)(O)O
As to the kind of experiment: purified protein. The note with it: Mn2+.

B1: (+)-limonene synthase [(+)-LS] (Citrus sinensis) (protein)
chain: RRSANYQPSIWDHDFLQSLNSNYTDETYKRRAEELKGKVKTAIKDVTEPLDQLELIDNLQRLGLAYHFEPEIRNILRNIHNHNKDYNWRKENLYATSLEFRLLRQHGYPVSQEVFSGFKDDKVGFICDDFKGILSLHEASYYSLEGESIMEEAWQFTSKHLKEMMITSNSKEEDVFVAEQAKRALELPLHWKAPMLEARWFIHVYEKREDKNHLLLELAKLEFNTLQAIYQEELKDISGWWKDTGLGEKLSFARNRLVASFLWSMGIAFEPQFAYCRRVLTISIALITVIDDIYDVYGTLDELEIFTDAVARWDINYALKHLPGYMKMCFLALYNFVNEFAYYVLKQQDFDMLLSIKHAWLGLIQAYLVEAKWYHSKYTPKLEEYLENGLVSITGPLIITISYLSGTNPIIKKELEFLESNPDIVHWSSKIFRLQDDLGTSSDEIQRGDVPKSIQCYMHETGASEEVAREHIKDMMRQMWKKVNAYTADKDSPLTRTTAEFLLNLVRMSHFMYLHGDGHGVQNQETIDVGFTLLFQPIPLEDKDMAFTASPGTKG
Broadly, the Km is the concentration of substrate that gives half-maximal velocity. On to B1, for which the Michaelis-Menten constant (Km) came out at 13.1 ± 0.6 µM.
